Like-named read-outs stand apart in the source and are kept apart here.

The source of these data is patent US20230192818A1 (TWIST BIOSCIENCE, published 2023).

Assay [1] concerns the target T1, Antibody 178-08_His 501.V2 (27079) (SARS-CoV-2, UniProt P0DTC2 16-685). In words: SPR (Carterra).
Assay [2] deals with T1, Antibody 178-08_His 501.V2 (27079). The assay can be described thus: SPR (Carterra). The source holds these as a separate data set.

B1: 3-31 (Fc fusion)
chain: EVQLVESGGGLVQPGGSLRLSCAASGSTFSINAMGWFRQAPGKEREFVAGITSSGGYTNYADSVKGRFTISADNSKNTAYLQMNSLKPEDTAVYYCAADGVPEYSDYASGPVWGQGTLVTVSS
notes: also called Antibody 3-31
For B1, the Kd in assay [1] and in assay [2] was 96.7 µM in each case.
